Laboratory results: patent publication US20160244499A1 (Stanford University, published 2016)

Molecular target: T1, γc on human cell lines (Ramos, HH, U937) (human, UniProt P31785 23-369)
T1 sequence (looked up): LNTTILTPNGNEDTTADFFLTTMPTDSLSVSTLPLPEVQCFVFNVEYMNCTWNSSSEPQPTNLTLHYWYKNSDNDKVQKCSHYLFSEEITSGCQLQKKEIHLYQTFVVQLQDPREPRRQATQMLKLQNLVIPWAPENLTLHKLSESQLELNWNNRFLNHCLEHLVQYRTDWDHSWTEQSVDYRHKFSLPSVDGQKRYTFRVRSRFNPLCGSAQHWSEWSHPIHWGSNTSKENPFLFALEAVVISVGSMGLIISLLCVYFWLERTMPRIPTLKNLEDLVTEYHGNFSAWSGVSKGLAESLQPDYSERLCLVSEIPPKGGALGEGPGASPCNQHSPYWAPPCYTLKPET
Assay: cell-based or functional assay

- STAT6 phosphorylation in Ramos cells, potency against IL-4: ~3 fold
- STAT6 phosphorylation in Ramos cells, potency against KFR: ~10 fold
B1: super-4 (IL-4 RGA), free, not bound to IL-4Rα (ligand)
chain: HKCDITLQEIIKTLNSLTEQKTLCTELTVTDIFAASKNTTEKETFCRAATVLRQFYSHHEKDTRCLGATAQQFHRHKQLIRFLKRLDRNLWGLAGLNSCPVKEANQSTLENFLERLRVIMQSKWFKCGAHHHHHH
